# In article doi:10.1101/2024.09.16.613335, “Structure-guided assembly of an influenza spike nanobicelle vaccine provides pan H1 intranasal protection” (bioRxiv, 2024):
# Molecular target: the molecule itself
# Experiment: cryo-EM structure
protein,measurement,value
hemagglutinin (HA) spike on spiked nanobicelles (SNB) purified from the Fluad vaccine (natural protein) not shown,stoichiometry N,3
